# From paper PMC12205362
# Test system: MutS (Cy3-labeled) (Escherichia coli)
# Experiment: smFRET (TIRF)
# Conditions: GT mismatch, amino-dT, smTIRF FRET on surface-immobilized plasmids, imaging buffer and temperature not in material, dCas9 RNP assembled in 30 mM HEPES, 150 mM KCl, pH 7.5, MutS with …; for binding signal (fold lower k-1 vs RC): ATP
substance,measurement,setting,value
"pUC19HL_MutS GT mismatch, negatively supercoiled (-)SC",binding signal (fold lower k-1 vs RC),"k1 ~1.3x higher than RC, negatively supercoiled by gyrase, average sigma -0.07",1.3
same,binding signal,"negatively supercoiled by gyrase, average sigma -0.07",0.075 s-1 (koff)
"pUC19HL_MutS GT mismatch, positively supercoiled (+)SC",binding signal (fold lower k-1 vs RC),"k1 similar to RC, positively supercoiled by 9N reverse gyrase, average sigma +0.03",1.3
same,binding signal,"positively supercoiled by 9N reverse gyrase, average sigma +0.03",0.107 s-1 (koff)
"pUC19HL_MutS GT mismatch, relaxed circular (RC)",binding signal,covalently closed relaxed circle,0.204 s-1 (koff)
